Measurements published in patent US20160333095A1 (published 2016).
Residue numbers refer to the chain shown, from its start.

T1: cynomolgus CD3 (UniProt Q95LI5 22-198)
T1 chain: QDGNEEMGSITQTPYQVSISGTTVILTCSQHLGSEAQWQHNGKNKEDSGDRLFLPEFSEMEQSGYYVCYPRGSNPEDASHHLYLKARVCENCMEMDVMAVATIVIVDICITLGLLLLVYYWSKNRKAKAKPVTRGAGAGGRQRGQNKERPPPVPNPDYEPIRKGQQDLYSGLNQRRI

B1: bsIgG1-huCD3-H3L3×HER2-LFLEDA (bispecific antibody, V domains shown)
VH 1: EVKLVESGGGLVKPGRSLRLSCAASGFTFNTYAMNWVRQAPGKGLEWVARIRSKYNNYATYYADSVKDRFTISRDDSKSILYLQMNSLKTEDTAMYYCVRHGNFGNSYVSWFAYWGQGTLVTVSS
VL 1: QAVVTQEPSFSVSPGGTVTLTCRSSTGAVTTSNYANWVQQTPGQAFRGLIGGTNKRAPGVPARFSGSILGNKAALTITGAQADDESDYYCALWYSNLWVFGGGTKLTVL
VH 2: QVQLVQSGAEVKKPGASVKVSCKASGYTFTNYGISWVRQAPGQGLEWMGWLSAYSGNTIYAQKLQGRVTMTTDTSTTTAYMELRSLRSDDTAVYYCARDRIVVRPDYFDYWGQGTLVTVSS
VL 2: EIVLTQSPATLSLSPGERATLSCRASQSVSSYLAWYQQKPGQAPRLLIYDASNRATGIPARFSGSGSGTDFTLTISSLEPEDFAVYYCQQRSNWPRTFGQGTKVEIK
B2: IgG1-huCD3-H3L1-LFLEDA (antibody, V domains shown)
VH: B1 VH 1
VL: not shown
B3: bsIgG1 huCD3-H3L1×HER2-LFLEDA (bispecific antibody, V domains shown)
VH 1: B1 VH 1
VL 1: not shown
VH 2: B1 VH 2
VL 2: B1 VL 2
B4: IgG1-huCD3-H1L1-LFLEDA (antibody, V domains shown)
VH: B1 VH 1 with K13Q, R16G, I80S, S87N
VL: not shown
B5: bsIgG1 CD3×HER2 (bispecific antibody, V domains shown)
VH 1: B1 VH 1 with V5L, K13Q, G15K, R16G, R19K, K78Q, S87N, S125A
VL 1: QAVVTQESALTTSPGETVTLTCRSSTGAVTTSNYANWVQEKPDHLFTGLIGGTNKRAPGVPARFSGSLIGDKAALTITGAQTEDEAIYFCALWYSNLWVFGGGTKLTVL
VH 2: B1 VH 2
VL 2: B1 VL 2
B6: IgG1-huCD3-H1L2 (antibody, V domains shown)
VH: B1 VH 1 with K13Q, R16G, I80S, S87N
VL: B1 VL 1 with D87I, Y89F
B7: IgG1-huCD3-H1L3 (antibody, V domains shown)
VH: B1 VH 1 with K13Q, R16G, I80S, S87N
VL: B1 VL 1
B8: IgG1-huCD3-H3L3 (antibody, V domains shown)
VH: B1 VH 1
VL: B1 VL 1
B9: bsIgG1-huCD3-H4L3×HER2-LFLEDA (bispecific antibody, V domains shown)
VH 1: B1 VH 1 with L120M
VL 1: B1 VL 1
VH 2: B1 VH 2
VL 2: B1 VL 2
B10: IgG1-huCD3-H4L3-LFLEDA (antibody, V domains shown)
VH: B1 VH 1 with L120M
VL: B1 VL 1
B11: IgG1-huCD3-H1L1 (antibody, V domains shown)
VH: B1 VH 1 with K13Q, R16G, I80S, S87N
VL: not shown
B12: IgG1-huCD3-H4L1-LFLEDA (antibody, V domains shown)
VH: B1 VH 1 with L120M
VL: not shown
B13: bsIgG1-huCD3-H4L1×HER2-LFLEDA (bispecific antibody, V domains shown)
VH 1: B1 VH 1 with L120M
VL 1: not shown
VH 2: B1 VH 2
VL 2: B1 VL 2
B14: IgG1-CD3-LFLEDA (antibody, V domains shown)
VH: B1 VH 1 with V5L, K13Q, G15K, R16G, R19K, K78Q, S87N, S125A
VL: B5 VL 1
B15: bsIgG1-huCD3-H1L1×HER2-LFLEDA (bispecific antibody, V domains shown)
VH 1: B1 VH 1 with K13Q, R16G, I80S, S87N
VL 1: not shown
VH 2: B1 VH 2
VL 2: B1 VL 2
B16: IgG1-huCD3-H3L3-LFLEDA (antibody, V domains shown)
VH: B1 VH 1
VL: B1 VL 1
B17: IgG1-huCD3-H4L1 (antibody, V domains shown)
VH: B1 VH 1 with L120M
VL: not shown
B18: bsIgG1-huCD3-H1L3×HER2-LFLEDA (bispecific antibody, V domains shown)
VH 1: B1 VH 1 with K13Q, R16G, I80S, S87N
VL 1: B1 VL 1
VH 2: B1 VH 2
VL 2: B1 VL 2
B19: IgG1-huCD3-H1L3-LFLEDA (antibody, V domains shown)
VH: B1 VH 1 with K13Q, R16G, I80S, S87N
VL: B1 VL 1

Tests used:
cynomolgus CD3 [1] = target: T1, cynomolgus CD3; experiment: FACS binding, HSC-F cells
human CD3 [2] = target: T2, human CD3 (UniProt P07766 22-207); experiment: FACS binding, Jurkat cells
cynomolgus CD3 [3] = target: T1, cynomolgus CD3; experiment: FACS binding, HSC-F cells; Fig 2B
human CD3 [4] = target: T2, human CD3; experiment: FACS binding, Jurkat cells; remark: listed apart in the source
cynomolgus CD3 [5] = target: T1, cynomolgus CD3; experiment: FACS binding, HSC-F cells
human CD3 [6] = target: T2, human CD3; experiment: FACS binding, Jurkat cells; Fig 1B
human CD3 [7] = target: T2, human CD3; experiment: FACS binding, Jurkat cells; Fig 1A
cynomolgus CD3 [8] = target: T1, cynomolgus CD3; experiment: FACS binding, HSC-F cells; Fig 2A
cynomolgus CD3 [9] = target: T1, cynomolgus CD3; experiment: FACS binding, HSC-F cells; second row printed H4L1; graph legend indicates H4L3

T2 sequence (P07766 22-207): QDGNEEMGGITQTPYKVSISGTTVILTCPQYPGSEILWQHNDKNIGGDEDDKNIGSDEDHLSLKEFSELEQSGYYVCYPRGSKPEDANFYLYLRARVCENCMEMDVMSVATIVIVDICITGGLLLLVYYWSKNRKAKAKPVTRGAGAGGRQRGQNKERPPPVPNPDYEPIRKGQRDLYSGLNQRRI

Binder | EC50 (cynomolgus CD3 [1]) [µg/mL] | EC50 (human CD3 [2]) [µg/mL] | EC50 (human CD3 [4]) [µg/mL] | EC50 (cynomolgus CD3 [5]) [µg/mL] | EC50 (human CD3 [7]) [µg/mL] | EC50 (cynomolgus CD3 [8]) [µg/mL] | other results
B1 | 0.26 | 0.74 |  |  |  |  | 
B2 |  |  | 0.1 | 0.04 | 0.04 | 0.19 | EC50 (cynomolgus CD3 [3]): 0.3 µg/mL; EC50 (human CD3 [6]): 0.04 µg/mL
B3 | 0.28 | 0.64 |  |  |  |  | EC50 (cynomolgus CD3 [3]): 3.54 µg/mL; EC50 (human CD3 [6]): 0.28 µg/mL
B4 |  |  |  | 0.03 |  |  | 
B5 |  |  |  |  |  |  | EC50 (human CD3 [6]): 0.68 µg/mL
B6 |  |  |  |  | 0.08 | 0.31 | 
B7 |  |  |  |  | 0.06 | 0.28 | 
B8 |  |  |  |  | 0.02 | 0.11 | 
B9 |  | 0.59 |  |  |  |  | EC50 (cynomolgus CD3 [9]): 0.24 µg/mL
B10 |  |  | 0.08 | 0.02 |  |  | 
B11 |  |  |  |  |  | 0.37 | 
B12 |  |  | 0.06 | 0.03 |  |  | 
B13 | 0.36 | 0.62 |  |  |  |  | 
B14 | 0.06 | 0.18 | 0.27 | 0.06 | 0.08 | 0.3 | EC50 (cynomolgus CD3 [3]): 0.47 µg/mL; EC50 (human CD3 [6]): 0.07 µg/mL
B15 | 0.32 |  |  |  |  |  | 
B16 |  |  | 0.08 | 0.03 |  |  | 
B17 |  |  |  |  | 0.05 | 0.26 | 
B18 | 0.25 | 0.58 |  |  |  |  | 
B19 |  |  | 0.11 | 0.03 |  |  | 
